The text below walks through data of article PMC7573591 (Nature Communications, 2020).

Substrate in data set [1]: C=C(C)CCO[P@@](=O)(O)OP(=O)(O)O
Description: purified protein. The following applies: 10 μM FPP, 0.5 mM MgCl2, pH 7.5, 30 °C, 0.02% Triton X-100, labelled compound.

Substrate in data set [2]: CC(C)=CCC/C(C)=C/CC/C(C)=C/CO[P@@](=O)(O)OP(=O)(O)O
The data set can be described thus: purified protein. It is filed as biochemical, Homo sapiens. As to conditions: 100 μM IPP, 0.5 mM MgCl2, pH 7.5, 30 °C, 0.02% Triton X-100.

Data set [3] deals with the molecule itself. The data set can be described thus: cross-linking; about 8 µM purified shcis-PT with 0.005% glutaraldehyde, room temperature, 15 min; products analysed by SDS-PAGE.

B1: shcis-PT (soluble human cis-prenyltransferase complex, DHDDS-sNgBR) (Homo sapiens) (protein)
chain 1: MSWIKEGELSLWERFCANIIKAGPMPKHIAFIMDGNRRYAKKCQVERQEGHSQGFNKLAETLRWCLNLGILEVTVYAFSIENFKRSKSEVDGLMDLARQKFSRLMEEKEKLQKHGVCIRVLGDLHLLPLDLQELIAQAVQATKNYNKCFLNVCFAYTSRHEISNAVREMAWGVEQGLLDPSDISESLLDKCLYTNRSPHPDILIRTSGEVRLSDFLLWQTSHSCLVFQPVLWPEYTFWNLFEAILQFQMNHSVLQKARDMYAEERKRQQLERDQATVTEQLLREGLQASGDAQLRRTRLHKLSARREERVQGFLQALELKRADWLARLGTASA
chain 2: RGGSCLAAAHHRMRWRADGRSLEKLPVHMGLVITEVEQEPSFSDIASLVVWCMAVGISYISVYDHQGIFKRNNSRLMDEILKQQQELLGLDCSKYSPEFANSNDKDDQVLNCHLAVKVLSPEDGKADIVRAAQDFCQLVAQKQKRPTDLDVDTLASLLSSNGCPDPDLVLKFGPVDSTLGFLPWHIRLTEIVSLPSHLNISYEDFFSALRQYAACEQRLGK
notes: full-length DHDDS 1-333 plus cytosolic NgBR 73-293 (no transmembrane domain); co-expressed in E. coli; TRX fusions, His- and Strep-tags cut by TEV
The Km is the concentration of substrate that gives half-maximal velocity. In general, kcat refers to the maximal rate divided by the concentration of active sites. On to B1, for which, in data set [1], the Km came to 6.23 ± 1.50 µM and the kcat came out at 0.74 ± 0.02 s⁻¹. Besides, in data set [2], the Michaelis-Menten constant (Km) was found to be 0.11 ± 0.01 µM and the catalytic constant (kcat) was found to be 0.74 ± 0.02 s⁻¹.

B2: dehydrodolichyl diphosphate synthase (DHDDS), full-length human, residues 1-333 (enzyme, UniProt Q86SQ9 1-333, looked up)
chain: B1 chain 1
notes: human dehydrodolichyl diphosphate synthase (DHDDS), full length, residues 1-333, UniProt Q86SQ9; Cloned into pET-32b as a TRX fusion with a TEV site; tags and TRX removed by TEV protease before the final size-exclusion step; also called DHDD synthase; catalytic subunit of hcis-PT / shcis-PT / xcis-PT
Consider B2, for which the binding result in data set [3] is on record as “binds”.
